Tests used:
[1] = molecular target: recombinant Tie1 extracellular domain, Fc fusion protein (UniProt P35590)
Tie2 = molecular target: T1, Tie2 (Homo sapiens (Human), UniProt Q02763); experiment: solid-phase ELISA, Tie-Fc dimers on coated SVEP1
T1 chain: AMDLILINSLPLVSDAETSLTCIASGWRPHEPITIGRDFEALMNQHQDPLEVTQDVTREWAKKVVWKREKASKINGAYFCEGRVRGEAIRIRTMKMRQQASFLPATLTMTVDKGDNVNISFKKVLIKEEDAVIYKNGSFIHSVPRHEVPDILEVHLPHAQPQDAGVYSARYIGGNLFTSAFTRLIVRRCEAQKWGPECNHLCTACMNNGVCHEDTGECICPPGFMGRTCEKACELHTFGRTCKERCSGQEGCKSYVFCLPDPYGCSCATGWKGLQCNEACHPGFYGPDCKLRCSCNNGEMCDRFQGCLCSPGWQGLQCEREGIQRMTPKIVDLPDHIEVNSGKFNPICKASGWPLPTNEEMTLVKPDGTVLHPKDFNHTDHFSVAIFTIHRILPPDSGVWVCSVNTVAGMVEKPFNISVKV

[2] = molecular target: T2, recombinant full-length mouse Polydom (mouse, UniProt A2AVA0 18-3567); experiment: ELISA; reverse solid-phase binding assay, titration: full-length Polydom coated (10 nM by the legend), serially diluted Tie1-Fc or Tie2-Fc in solution, detected with HRP anti-human IgG against the Fc tag; apparent dissociation constant; conditions: both partners purified
T2 construct: Polydom (SVEP1), mouse, full length; expression vector as in Sato-Nishiuchi et al., 2012; The construct is described in Sato-Nishiuchi et al., 2012; also called SVEP1; full-length Polydom
T2 sequence (A2AVA0 18-3567): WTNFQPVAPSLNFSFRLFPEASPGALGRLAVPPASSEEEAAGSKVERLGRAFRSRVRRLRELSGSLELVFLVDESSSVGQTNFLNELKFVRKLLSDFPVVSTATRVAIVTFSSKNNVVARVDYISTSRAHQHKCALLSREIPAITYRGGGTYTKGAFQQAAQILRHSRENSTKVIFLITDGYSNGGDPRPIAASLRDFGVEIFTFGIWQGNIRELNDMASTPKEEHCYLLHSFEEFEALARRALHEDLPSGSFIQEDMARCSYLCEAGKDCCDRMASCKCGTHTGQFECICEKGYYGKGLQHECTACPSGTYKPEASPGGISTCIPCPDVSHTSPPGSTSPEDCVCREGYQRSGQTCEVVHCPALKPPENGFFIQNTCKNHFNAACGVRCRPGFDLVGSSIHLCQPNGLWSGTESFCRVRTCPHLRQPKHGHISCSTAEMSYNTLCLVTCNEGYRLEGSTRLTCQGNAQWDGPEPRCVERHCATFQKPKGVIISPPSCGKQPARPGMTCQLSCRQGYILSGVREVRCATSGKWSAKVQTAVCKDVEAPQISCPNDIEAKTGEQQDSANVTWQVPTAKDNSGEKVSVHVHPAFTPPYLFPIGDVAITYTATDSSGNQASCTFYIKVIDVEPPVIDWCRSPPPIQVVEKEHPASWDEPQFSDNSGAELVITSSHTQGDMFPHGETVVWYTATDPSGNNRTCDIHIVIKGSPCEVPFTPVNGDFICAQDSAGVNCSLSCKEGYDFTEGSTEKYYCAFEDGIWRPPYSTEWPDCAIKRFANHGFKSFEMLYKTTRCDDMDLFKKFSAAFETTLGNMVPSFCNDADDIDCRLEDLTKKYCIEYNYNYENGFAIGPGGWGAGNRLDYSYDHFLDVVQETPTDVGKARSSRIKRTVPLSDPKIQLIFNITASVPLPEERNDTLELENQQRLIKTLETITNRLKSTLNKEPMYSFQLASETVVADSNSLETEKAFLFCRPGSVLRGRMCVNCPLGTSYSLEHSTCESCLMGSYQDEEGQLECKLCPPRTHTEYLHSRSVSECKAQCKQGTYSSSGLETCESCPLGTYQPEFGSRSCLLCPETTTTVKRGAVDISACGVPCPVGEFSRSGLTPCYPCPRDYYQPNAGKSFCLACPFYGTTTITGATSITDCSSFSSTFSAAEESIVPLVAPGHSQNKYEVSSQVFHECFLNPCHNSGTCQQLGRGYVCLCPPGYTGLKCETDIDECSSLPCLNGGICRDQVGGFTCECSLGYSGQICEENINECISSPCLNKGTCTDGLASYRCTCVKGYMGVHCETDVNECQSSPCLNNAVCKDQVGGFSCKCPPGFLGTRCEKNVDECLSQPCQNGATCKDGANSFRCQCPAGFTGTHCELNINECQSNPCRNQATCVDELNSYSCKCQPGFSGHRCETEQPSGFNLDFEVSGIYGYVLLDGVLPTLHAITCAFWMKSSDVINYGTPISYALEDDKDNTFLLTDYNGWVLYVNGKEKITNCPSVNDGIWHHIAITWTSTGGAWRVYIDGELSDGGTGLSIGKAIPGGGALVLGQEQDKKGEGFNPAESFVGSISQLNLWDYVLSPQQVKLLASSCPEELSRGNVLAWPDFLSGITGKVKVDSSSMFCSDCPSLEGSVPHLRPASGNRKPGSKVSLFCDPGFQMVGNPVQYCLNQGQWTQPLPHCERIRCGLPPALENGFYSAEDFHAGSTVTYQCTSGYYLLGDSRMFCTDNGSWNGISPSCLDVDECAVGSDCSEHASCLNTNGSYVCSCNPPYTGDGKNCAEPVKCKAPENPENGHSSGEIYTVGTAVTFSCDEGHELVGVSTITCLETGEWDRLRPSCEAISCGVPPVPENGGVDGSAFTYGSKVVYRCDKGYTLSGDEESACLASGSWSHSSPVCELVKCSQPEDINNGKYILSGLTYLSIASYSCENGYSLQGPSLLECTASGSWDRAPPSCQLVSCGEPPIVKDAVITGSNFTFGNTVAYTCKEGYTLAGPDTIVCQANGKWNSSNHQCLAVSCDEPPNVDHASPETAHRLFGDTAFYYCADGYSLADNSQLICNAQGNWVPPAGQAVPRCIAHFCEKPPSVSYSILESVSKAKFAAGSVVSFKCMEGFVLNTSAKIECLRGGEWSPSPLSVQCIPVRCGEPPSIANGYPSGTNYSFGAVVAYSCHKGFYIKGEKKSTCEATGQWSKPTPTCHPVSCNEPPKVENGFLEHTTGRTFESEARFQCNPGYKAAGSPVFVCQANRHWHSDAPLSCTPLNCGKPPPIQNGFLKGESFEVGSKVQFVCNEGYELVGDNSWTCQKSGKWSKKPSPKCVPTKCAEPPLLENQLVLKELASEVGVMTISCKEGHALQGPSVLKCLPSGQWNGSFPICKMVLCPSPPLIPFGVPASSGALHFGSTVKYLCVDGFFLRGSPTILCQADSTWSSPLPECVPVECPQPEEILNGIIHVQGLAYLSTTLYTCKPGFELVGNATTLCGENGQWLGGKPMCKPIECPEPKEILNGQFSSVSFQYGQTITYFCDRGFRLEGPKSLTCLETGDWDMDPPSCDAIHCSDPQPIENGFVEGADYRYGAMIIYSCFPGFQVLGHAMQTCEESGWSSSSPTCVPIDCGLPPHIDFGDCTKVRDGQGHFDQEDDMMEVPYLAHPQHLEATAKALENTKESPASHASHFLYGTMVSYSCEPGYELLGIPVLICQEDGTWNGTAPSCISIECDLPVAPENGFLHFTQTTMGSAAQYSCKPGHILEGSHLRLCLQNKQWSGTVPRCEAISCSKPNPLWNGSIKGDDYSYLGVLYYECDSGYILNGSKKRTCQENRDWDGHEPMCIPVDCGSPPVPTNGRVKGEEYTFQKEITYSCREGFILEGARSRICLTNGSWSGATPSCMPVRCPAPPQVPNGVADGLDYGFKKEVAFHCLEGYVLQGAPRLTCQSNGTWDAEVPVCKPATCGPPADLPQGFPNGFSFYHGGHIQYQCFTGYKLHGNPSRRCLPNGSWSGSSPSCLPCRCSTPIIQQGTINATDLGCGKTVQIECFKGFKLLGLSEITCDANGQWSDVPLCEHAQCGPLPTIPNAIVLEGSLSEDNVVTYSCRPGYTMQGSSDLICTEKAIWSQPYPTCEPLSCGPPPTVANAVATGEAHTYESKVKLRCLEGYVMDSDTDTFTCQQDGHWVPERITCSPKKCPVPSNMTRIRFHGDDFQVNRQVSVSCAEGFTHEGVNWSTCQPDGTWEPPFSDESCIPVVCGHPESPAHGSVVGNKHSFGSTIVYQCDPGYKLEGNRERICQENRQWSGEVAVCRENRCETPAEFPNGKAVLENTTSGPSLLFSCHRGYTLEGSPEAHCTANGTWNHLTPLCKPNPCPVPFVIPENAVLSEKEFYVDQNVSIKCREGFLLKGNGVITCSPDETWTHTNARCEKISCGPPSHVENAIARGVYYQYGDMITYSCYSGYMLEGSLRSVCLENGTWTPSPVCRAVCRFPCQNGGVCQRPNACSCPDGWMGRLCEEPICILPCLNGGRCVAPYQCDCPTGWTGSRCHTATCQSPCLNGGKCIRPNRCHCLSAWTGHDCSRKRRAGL

“full-length Polydom E2567A mutant, A2AVA0 18-3567” gave a Transwell migration of human dermal LECs toward Polydom/E2567A (1 μg/ml) in the lower chamber, reduction compared with control Polydom [1] of 80%.

B1: SVEP1 (protein)
chain: DAIHCSDPQPIENGFVEGADYRYGAMIIYSCFPGFQVLGHAMQTCEESGWSSSSPTCVPID
Work on B1 yielded a Kd (Tie2) of over 500 nM.

B2: recombinant Tie1 extracellular domain, Fc fusion protein (Fc fusion, UniProt P35590 22-759, looked up)
chain: AVDLTLLANLRLTDPQRFFLTCVSGEAGAGRGSDAWGPPLLLEKDDRIVRTPPGPPLRLARNGSHQVTLRGFSKPSDLVGVFSCVGGAGARRTRVIYVHNSPGAHLLPDKVTHTVNKGDTAVLSARVHKEKQTDVIWKSNGSYFYTLDWHEAQDGRFLLQLPNVQPPSSGIYSATYLEASPLGSAFFRLIVRGCGAGRWGPGCTKECPGCLHGGVCHDHDGECVCPPGFTGTRCEQACREGRFGQSCQEQCPGISGCRGLTFCLPDPYGCSCGSGWRGSQCQEACAPGHFGADCRLQCQCQNGGTCDRFSGCVCPSGWHGVHCEKSDRIPQILNMASELEFNLETMPRINCAAAGNPFPVRGSIELRKPDGTVLLSTKAIVEPEKTTAEFEVPRLVLADSGFWECRVSTSGGQDSRRFKVNVKVPPVPLAAPRLLTKQSRQLVVSPLVSFSGDGPISTVRLHYRPQDSTMDWSTIVVDPSENVTLMNLRPKTGYSVRVQLSRPGEGGEGAWGPPTLMTTDCPEPLLQPWLEGWHVEGTDRLRVSWSLPLVPGPLVGDGFLLRLWDGTRGQERRENVSSPQARTALLTGLTPGTHYQLDVQLYHCTLLGPASPPAHVLLPPSGPPAPRHLHAQALSDSEIQLTWKHPEALPGPISKYVVEVQVAGGAGDPLWIDVDRPEETSTIIRGLNASTRYLFRMRASIQGLGDWSNTVEESTLGNGLQAEGPVQESRAAEEGLDQ
notes: Tie1, extracellular domain, expressed as Fc fusion protein; The Fc tag was detected with an anti-human IgG antibody; also called Tie1 with an Fc tag; source: bought: R&D Systems
Molecule B2 has a Kd [2] of 43 ± 4 nM.

From PMC10281526, “Polydom/SVEP1 binds to Tie1 and promotes migration of lymphatic endothelial cells” (The Journal of Cell Biology, 2023)
